System: Escherichia coli TOP10
Assay: shrunken log2 fold change of peptide-encoding DNA abundance (4.5 h post-induction vs induction); higher = less antimicrobial activity (less host growth inhibition)
Settings: time post-induction: 4.5 h; library: site-saturation at positions 5, 18, 19, 20
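Also: peptides expressed intracellularly from a pBAD plasmid library in pooled LB shake-flask culture, induced with 0.3% L-arabinose, DNA abundance read by NGS, three biological replicates, DESeq2 with apeglm shrinkage.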

In the case of RRIRGRPPRLPRPRPRPIWEPRP, the “shrunken log2 fold change” value was 0.019.
For RRIRSRPPRLPRPRPRPPAMPRP, the “shrunken log2 fold change” value was 0.344.
For RRIRWRPPRLPRPRPRPRGWPRP, the “shrunken log2 fold change” value was 1.13.
With RRIRHRPPRLPRPRPRPMRDPRP the “shrunken log2 fold change” value was 0.684.
For RRIRNRPPRLPRPRPRPWHKPRP, the “shrunken log2 fold change” value was -0.0524.
For RRIRMRPPRLPRPRPRPWGEPRP, the “shrunken log2 fold change” value was 0.232.
For RRIRGRPPRLPRPRPRPSNDPRP, the “shrunken log2 fold change” value was 0.702.
RRIRFRPPRLPRPRPRPLTDPRP was tested, and the “shrunken log2 fold change” value was -0.143.
For RRIRPRPPRLPRPRPRPMKHPRP, the “shrunken log2 fold change” value was 0.0348.
For RRIRSRPPRLPRPRPRPVWKPRP, the “shrunken log2 fold change” value was -0.1.
RRIRHRPPRLPRPRPRPQLSPRP was tested, and the “shrunken log2 fold change” value was -0.000101.
RRIRWRPPRLPRPRPRPGRVPRP was tested, and the “shrunken log2 fold change” value was 0.37.
With RRIRVRPPRLPRPRPRPQWFPRP the “shrunken log2 fold change” value was -0.134.
With RRIRMRPPRLPRPRPRPVKYPRP the “shrunken log2 fold change” value was 0.0631.
RRIRHRPPRLPRPRPRPHVAPRP was tested, and the “shrunken log2 fold change” value was -0.208.
In the case of RRIRTRPPRLPRPRPRPMLYPRP, the “shrunken log2 fold change” value was -0.131.
With RRIRWRPPRLPRPRPRPPCNPRP the “shrunken log2 fold change” value was 0.0762.
RRIRDRPPRLPRPRPRPDFTPRP was tested, and the “shrunken log2 fold change” value was -0.0299.
With RRIRTRPPRLPRPRPRPYSRPRP the “shrunken log2 fold change” value was 0.0299.
RRIRGRPPRLPRPRPRPSCFPRP was tested, and the “shrunken log2 fold change” value was 0.504.
For RRIRCRPPRLPRPRPRPQTDPRP, the “shrunken log2 fold change” value was -0.00613.
RRIRCRPPRLPRPRPRPPAPPRP was tested, and the “shrunken log2 fold change” value was 1.11.
In the case of RRIRHRPPRLPRPRPRPCRGPRP, the “shrunken log2 fold change” value was 0.00172.
With RRIRVRPPRLPRPRPRPHLWPRP the “shrunken log2 fold change” value was -0.0616.
With RRIRQRPPRLPRPRPRPMGRPRP the “shrunken log2 fold change” value was -0.00151.
For RRIRFRPPRLPRPRPRPNMSPRP, the “shrunken log2 fold change” value was -0.54.
RRIRPRPPRLPRPRPRPSDHPRP was tested, and the “shrunken log2 fold change” value was -0.605.
In the case of RRIRTRPPRLPRPRPRPVWPPRP, the “shrunken log2 fold change” value was 0.332.
RRIRLRPPRLPRPRPRPYNKPRP was tested, and the “shrunken log2 fold change” value was 1.41.
RRIRRRPPRLPRPRPRPKTGPRP was tested, and the “shrunken log2 fold change” value was 0.1.
With RRIRIRPPRLPRPRPRPMMCPRP the “shrunken log2 fold change” value was 0.0233.
In the case of RRIRHRPPRLPRPRPRPTRGPRP, the “shrunken log2 fold change” value was 0.0497.
With RRIRTRPPRLPRPRPRPEHKPRP the “shrunken log2 fold change” value was -0.0645.
RRIRTRPPRLPRPRPRPDRNPRP was tested, and the “shrunken log2 fold change” value was -0.09.
RRIRIRPPRLPRPRPRPWEMPRP was tested, and the “shrunken log2 fold change” value was 0.177.
RRIRSRPPRLPRPRPRPNCPPRP was tested, and the “shrunken log2 fold change” value was -0.374.
In the case of RRIRYRPPRLPRPRPRPGLPPRP, the “shrunken log2 fold change” value was 0.107.
RRIRWRPPRLPRPRPRPFFEPRP was tested, and the “shrunken log2 fold change” value was -0.0187.
For RRIRLRPPRLPRPRPRPLLMPRP, the “shrunken log2 fold change” value was -0.136.
For RRIRSRPPRLPRPRPRPVIVPRP, the “shrunken log2 fold change” value was -0.191.
In the case of RRIRNRPPRLPRPRPRPICPPRP, the “shrunken log2 fold change” value was -0.0189.
RRIRVRPPRLPRPRPRPMCCPRP was tested, and the “shrunken log2 fold change” value was -0.0676.
RRIRTRPPRLPRPRPRPRPPPRP was tested, and the “shrunken log2 fold change” value was 0.745.
In the case of RRIRIRPPRLPRPRPRPWFQPRP, the “shrunken log2 fold change” value was -0.0137.
In the case of RRIRARPPRLPRPRPRPYEFPRP, the “shrunken log2 fold change” value was 0.182.
For RRIRSRPPRLPRPRPRPEHEPRP, the “shrunken log2 fold change” value was -0.182.
RRIRLRPPRLPRPRPRPRWHPRP was tested, and the “shrunken log2 fold change” value was 0.199.
RRIRWRPPRLPRPRPRPFYCPRP was tested, and the “shrunken log2 fold change” value was -0.151.
RRIRIRPPRLPRPRPRPDFSPRP was tested, and the “shrunken log2 fold change” value was -0.175.
With RRIRWRPPRLPRPRPRPRGIPRP the “shrunken log2 fold change” value was 0.234.
With RRIRKRPPRLPRPRPRPTSPPRP the “shrunken log2 fold change” value was 0.15.
In the case of RRIRHRPPRLPRPRPRPLADPRP, the “shrunken log2 fold change” value was 0.26.
In the case of RRIRRRPPRLPRPRPRPYFGPRP, the “shrunken log2 fold change” value was -0.163.
For RRIRSRPPRLPRPRPRPNPVPRP, the “shrunken log2 fold change” value was -0.0484.
With RRIRTRPPRLPRPRPRPLWMPRP the “shrunken log2 fold change” value was -0.119.
For RRIRQRPPRLPRPRPRPPDDPRP, the “shrunken log2 fold change” value was -0.308.
With RRIRGRPPRLPRPRPRPIDPPRP the “shrunken log2 fold change” value was -0.0473.
With RRIRFRPPRLPRPRPRPPQNPRP the “shrunken log2 fold change” value was 0.536.
With RRIRFRPPRLPRPRPRPAWNPRP the “shrunken log2 fold change” value was 0.291.
In the case of RRIRGRPPRLPRPRPRPYFHPRP, the “shrunken log2 fold change” value was -0.462.
RRIRSRPPRLPRPRPRPPCAPRP was tested, and the “shrunken log2 fold change” value was 0.497.
With RRIRSRPPRLPRPRPRPFYNPRP the “shrunken log2 fold change” value was -0.54.
RRIRIRPPRLPRPRPRPALCPRP was tested, and the “shrunken log2 fold change” value was 0.0482.
RRIRVRPPRLPRPRPRPHLAPRP was tested, and the “shrunken log2 fold change” value was 0.101.
For RRIRHRPPRLPRPRPRPQTLPRP, the “shrunken log2 fold change” value was -0.313.
For RRIRKRPPRLPRPRPRPVIHPRP, the “shrunken log2 fold change” value was -0.0677.
In the case of RRIRPRPPRLPRPRPRPQMGPRP, the “shrunken log2 fold change” value was -0.0457.
RRIRFRPPRLPRPRPRPSLCPRP was tested, and the “shrunken log2 fold change” value was -0.348.
In the case of RRIRVRPPRLPRPRPRPKNKPRP, the “shrunken log2 fold change” value was -0.169.
For RRIRKRPPRLPRPRPRPANSPRP, the “shrunken log2 fold change” value was -0.0423.
For RRIRKRPPRLPRPRPRPPVCPRP, the “shrunken log2 fold change” value was 0.336.
For RRIRQRPPRLPRPRPRPVEYPRP, the “shrunken log2 fold change” value was -0.434.
With RRIRIRPPRLPRPRPRPWNCPRP the “shrunken log2 fold change” value was -0.000121.
With RRIRQRPPRLPRPRPRPYVVPRP the “shrunken log2 fold change” value was -0.102.
With RRIRKRPPRLPRPRPRPWDAPRP the “shrunken log2 fold change” value was 0.496.
For RRIRKRPPRLPRPRPRPCFKPRP, the “shrunken log2 fold change” value was 0.0163.
With RRIRNRPPRLPRPRPRPGLSPRP the “shrunken log2 fold change” value was 0.486.
With RRIRMRPPRLPRPRPRPCASPRP the “shrunken log2 fold change” value was 0.0954.
In the case of RRIRVRPPRLPRPRPRPHTEPRP, the “shrunken log2 fold change” value was -0.042.
With RRIRHRPPRLPRPRPRPFCVPRP the “shrunken log2 fold change” value was -0.312.
In the case of RRIRCRPPRLPRPRPRPETKPRP, the “shrunken log2 fold change” value was 0.0774.
For RRIRARPPRLPRPRPRPLQLPRP, the “shrunken log2 fold change” value was 0.179.
For RRIRTRPPRLPRPRPRPHRCPRP, the “shrunken log2 fold change” value was -0.0268.
For RRIRRRPPRLPRPRPRPVSMPRP, the “shrunken log2 fold change” value was 0.22.
For RRIRKRPPRLPRPRPRPCYQPRP, the “shrunken log2 fold change” value was -0.42.
In the case of RRIRIRPPRLPRPRPRPGADPRP, the “shrunken log2 fold change” value was -0.193.
In the case of RRIRYRPPRLPRPRPRPTDVPRP, the “shrunken log2 fold change” value was -0.122.
For RRIRSRPPRLPRPRPRPYGHPRP, the “shrunken log2 fold change” value was -0.00193.
With RRIRCRPPRLPRPRPRPTVAPRP the “shrunken log2 fold change” value was 0.0998.
For RRIRIRPPRLPRPRPRPSQSPRP, the “shrunken log2 fold change” value was -0.0979.
In the case of RRIRYRPPRLPRPRPRPCSTPRP, the “shrunken log2 fold change” value was -0.212.
RRIRMRPPRLPRPRPRPAKPPRP was tested, and the “shrunken log2 fold change” value was 0.453.
With RRIRKRPPRLPRPRPRPVNPPRP the “shrunken log2 fold change” value was -0.0659.
RRIRTRPPRLPRPRPRPWYVPRP was tested, and the “shrunken log2 fold change” value was -0.275.
In the case of RRIRERPPRLPRPRPRPWKGPRP, the “shrunken log2 fold change” value was -0.0443.
In the case of RRIRWRPPRLPRPRPRPASFPRP, the “shrunken log2 fold change” value was -0.0603.
RRIRHRPPRLPRPRPRPKQRPRP was tested, and the “shrunken log2 fold change” value was 0.41.
In the case of RRIRIRPPRLPRPRPRPPNMPRP, the “shrunken log2 fold change” value was -0.422.
RRIRHRPPRLPRPRPRPGEAPRP was tested, and the “shrunken log2 fold change” value was 0.051.
With RRIRMRPPRLPRPRPRPMCNPRP the “shrunken log2 fold change” value was -0.00494.
For RRIRKRPPRLPRPRPRPHSKPRP, the “shrunken log2 fold change” value was 0.0726.
In the case of RRIRERPPRLPRPRPRPGEGPRP, the “shrunken log2 fold change” value was 0.028.
For RRIRYRPPRLPRPRPRPQWNPRP, the “shrunken log2 fold change” value was -0.108.
With RRIRVRPPRLPRPRPRPMNYPRP the “shrunken log2 fold change” value was -0.128.
For RRIRHRPPRLPRPRPRPVQFPRP, the “shrunken log2 fold change” value was -0.335.
For RRIRCRPPRLPRPRPRPHDGPRP, the “shrunken log2 fold change” value was 0.0999.
With RRIRLRPPRLPRPRPRPPIAPRP the “shrunken log2 fold change” value was 0.192.
In the case of RRIRLRPPRLPRPRPRPIMHPRP, the “shrunken log2 fold change” value was 0.0628.
With RRIRCRPPRLPRPRPRPNISPRP the “shrunken log2 fold change” value was 0.039.
For RRIRSRPPRLPRPRPRPKKFPRP, the “shrunken log2 fold change” value was -0.222.
RRIRPRPPRLPRPRPRPGALPRP was tested, and the “shrunken log2 fold change” value was 0.243.
For RRIRYRPPRLPRPRPRPRKRPRP, the “shrunken log2 fold change” value was 0.266.
RRIRYRPPRLPRPRPRPVAEPRP was tested, and the “shrunken log2 fold change” value was -0.0801.
With RRIRNRPPRLPRPRPRPSVPPRP the “shrunken log2 fold change” value was -0.344.
In the case of RRIRERPPRLPRPRPRPSTPPRP, the “shrunken log2 fold change” value was -0.28.
For RRIRMRPPRLPRPRPRPGVHPRP, the “shrunken log2 fold change” value was 0.0493.
With RRIRNRPPRLPRPRPRPKIAPRP the “shrunken log2 fold change” value was 0.0241.
With RRIRGRPPRLPRPRPRPHAVPRP the “shrunken log2 fold change” value was 0.657.
In the case of RRIRERPPRLPRPRPRPNPIPRP, the “shrunken log2 fold change” value was -0.213.
For RRIRHRPPRLPRPRPRPHYVPRP, the “shrunken log2 fold change” value was -0.057.
RRIRFRPPRLPRPRPRPIWTPRP was tested, and the “shrunken log2 fold change” value was -0.0298.
RRIRPRPPRLPRPRPRPNKLPRP was tested, and the “shrunken log2 fold change” value was 0.448.
RRIRKRPPRLPRPRPRPVERPRP was tested, and the “shrunken log2 fold change” value was 0.204.
In the case of RRIRGRPPRLPRPRPRPLCEPRP, the “shrunken log2 fold change” value was 1.22.
For RRIRARPPRLPRPRPRPNIHPRP, the “shrunken log2 fold change” value was -0.333.
